Values of other authors, collected in article PMC6615252, “The binding affinity of PTPN13’s tandem PDZ2/3 domain is allosterically modulated” (BMC Molecular and Cell Biology, 2019).

Tested on: PDZ4 domain of PTPN13
Conditions: ref [39]; cited from earlier work
Source text: This might also explain as to why the observed in vitro affinities of PTPN13 for APC and PRK2 are low in comparison to known examples for PDZ-ligand interactions.

B1: PARG1: RhoGAP protein PARG1 (protein, UniProt Q52LW3 1-1261, looked up)
Rho GTPase-activating protein …: MIAHKQKKTKKKRAWASGQLSTDITTSEMGLKSLSSNSIFDPDYIKELVNDIRKFSHMLLYLKEAIFSDCFKEVIHIRLEELLRVLKSIMNKHQNLNSVDLQNAAEMLTAKVKAVNFTEVNEENKNDLFQEVFSSIETLAFTFGNILTNFLMGDVGNDSLLRLPVSRETKSFENVSVESVDSSSEKGNFSPLELDNVLLKNTDSIELALSYAKTWSKYTKNIVSWVEKKLNLELESTRNMVKLAEATRTNIGIQEFMPLQSLFTNALLNDIESSHLLQQTIAALQANKFVQPLLGRKNEMEKQRKEIKELWKQEQNKMLEAENALKKAKLLCMQRQDEYEKAKSSMFRAEEEHLSSSGGLAKNLNKQLEKKRRLEEEALQKVEEANELYKVCVTNVEERRNDLENTKREILAQLRTLVFQCDLTLKAVTVNLFHMQHLQAASLADSLQSLCDSAKLYDPGQEYSEFVKATNSTEEEKVDGNVNKHLNSSQPSGFGPANSLEDVVRLPDSSNKIEEDRCSNSADITGPSFIRSWTFGMFSDSESTGGSSESRSLDSESISPGDFHRKLPRTPSSGTMSSADDLDEREPPSPSETGPNSLGTFKKTLMSKAALTHKFRKLRSPTKCRDCEGIVVFQGVECEECLLVCHRKCLENLVIICGHQKLPGKIHLFGAEFTQVAKKEPDGIPFILKICASEIENRALCLQGIYRVCGNKIKTEKLCQALENGMHLVDISEFSSHDICDVLKLYLRQLPEPFILFRLYKEFIDLAKEIQHVNEEQETKKNSLEDKKWPNMCIEINRILLKSKDLLRQLPASNFNSLHFLIVHLKRVVDHAEENKMNSKNLGVIFGPSLIRPRPTTAPITISSLAEYSNQARLVEFLITYSQKIFDGSLQPQDVMCSIGVVDQGCFPKPLLSPEERDIERSMKSLFFSSKEDIHTSESESKIFERATSFEESERKQNALGKCDACLSDKAQLLLDQEAESASQKIEDGKTPKPLSLKSDRSTNNVERHTPRTKIRPVSLPVDRLLLASPPNERNGRNMGNVNLDKFCKNPAFEGVNRKDAATTVCSKFNGFDQQTLQKIQDKQYEQNSLTAKTTMIMPSALQEKGVTTSLQISGDHSINATQPSKPYAEPVRSVREASERRSSDSYPLAPVRAPRTLQPQHWTTFYKPHAPIISIRGNEEKPASPSAAVPPGTDHDPHGLVVKSMPDPDKASACPGQATGQPKEDSEELGLPDVNPMCQRPRLKRMQQFEDLEGEIPQFV
binding to PDZ4 domain: binds
